Patent US20080113383A1 (FIBRO GEN, published 2008)
Where no end group is shown, it is not given here.

Legend:
Assay in all cases: cell-based or functional assay
EGLN2 = molecular target: EGLN2
EGLN1 = molecular target: EGLN1
EGLN3 = molecular target: EGLN3

Binder	Activity (%)* (EGLN2) [%]	Activity (%)* (EGLN1) [%]	Activity (%)* (EGLN3) [%]
DTDLDLEMLCPYIPMDDDFQ (not fully specified; printed as DTDLDLEMLCpYIPMDDDFQ) [DTDLDLEMLCpYIPMDDDFQ]	0.4	1.94	63.1
DTDLDTEAFAPYIPADDDFQ (not fully specified; printed as DTDLDTEAFApYIPADDDFQ) [DTDLDTEAFApYIPADDDFQ]	28.5	22.2	24.1
DTDLDVEALAPYIPADDDFQ (not fully specified; printed as DTDLDVEALApYIPADDDFQ) [DTDLDVEALApYIPADDDFQ]	29	31.5	115
DTDLDLEASAPYIPADDDFQ [DTDLDLEASApYIPADDDFQ]	31.6	29.6	25.1
DTDLDLEARAPYIPADDDFQ [DTDLDLEARApYIPADDDFQ]	78.6	79	68.6
DTDLDAEASAPYIPADDDFQ [DTDLDAEASApYIPADDDFQ]	8.82	10.5	4.11
DTDLDHEALAPYIPADDDFQ [DTDLDHEALApYIPADDDFQ]	21.5	23.4	55.8
DTDLDREALAPYIPADDDFQ (not fully specified; printed as DTDLDREALApYIPADDDFQ) [DTDLDREALApYIPADDDFQ]	15.7	19.9	49.8
DTDLDLEMLRPYIPMDDDFQ (not fully specified; printed as DTDLDLEMLRpYIPMDDDFQ) [DTDLDLEMLRpYIPMDDDFQ]	14.3	19.8	77.6
DTDLDLEMLMPYIPMDDDFQ (not fully specified; printed as DTDLDLEMLMpYIPMDDDFQ) [DTDLDLEMLMpYIPMDDDFQ]	27.8	26.4	58.9
DTDLDTEAIAPYIPADDDFQ (not fully specified; printed as DTDLDTEAIApYIPADDDFQ) [DTDLDTEAIApYIPADDDFQ]	25.3	23.7	19
DTDLDAEAAAPYIPADDDFQ [DTDLDAEAAApYIPADDDFQ]	8.63	12.6	7.18
DTDLDYEALAPYIPADDDFQ (not fully specified; printed as DTDLDYEALApYIPADDDFQ) [DTDLDYEALApYIPADDDFQ]	108	94.2	136
DTDLDIEAIAPYIPADDDFQ [DTDLDIEAIApYIPADDDFQ]	64.3	72.5	72.8
DTDLDLEATAPYIPADDDFQ [DTDLDLEATApYIPADDDFQ]	54.9	68.2	63.2
DTDLDLEMLHPYIPMDDDFQ (not fully specified; printed as DTDLDLEMLHpYIPMDDDFQ) [DTDLDLEMLHpYIPMDDDFQ]	3.47	2.41	68.2
DTDLDLEMLQPYIPMDDDFQ (not fully specified; printed as DTDLDLEMLQpYIPMDDDFQ) [DTDLDLEMLQpYIPMDDDFQ]	38.1	45.1	59.9
DTDLDTEAYAPYIPADDDFQ (not fully specified; printed as DTDLDTEAYApYIPADDDFQ) [DTDLDTEAYApYIPADDDFQ]	25.6	24.1	36
DTDLDLEMLFPYIPMDDDFQ (not fully specified; printed as DTDLDLEMLFpYIPMDDDFQ) [DTDLDLEMLFpYIPMDDDFQ]	0.63	4.16	59.3
DTDLDIEANAPYIPADDDFQ [DTDLDIEANApYIPADDDFQ]	34.4	33.2	30.4
DTDLDLEMLLPYIPMDDDFQ (not fully specified; printed as DTDLDLEMLLpYIPMDDDFQ) [DTDLDLEMLLpYIPMDDDFQ]	-0.42	2.36	46.2

Binder	Activity (%)* (EGLN2) [%]	Activity (%)* (EGLN1) [%]	Activity (%)* (EGLN3) [%]
DTDLDNEALAPYIPADDDFQ (not fully specified; printed as DTDLDNEALApYIPADDDFQ) [DTDLDNEALApYIPADDDFQ]	21.4	27.1	57.6
DTDLDLEAGAPYIPADDDFQ [DTDLDLEAGApYIPADDDFQ]	9.84	11.3	12.2
DTDLDLEALAPYIPADDDFQ [DTDLDLEALApYIPADDDFQ]	102	102	119
DTDLDLEMLEPYIPMDDDFQ (not fully specified; printed as DTDLDLEMLEpYIPMDDDFQ) [DTDLDLEMLEpYIPMDDDFQ]	3.35	2.27	52.8
DTDLDIEAVAPYIPADDDFQ [DTDLDIEAVApYIPADDDFQ]	23.8	23.9	61.3
DTDLDLEMLIPYIPMDDDFQ (not fully specified; printed as DTDLDLEMLIpYIPMDDDFQ) [DTDLDLEMLIpYIPMDDDFQ]	17.8	15.6	101
DTDLDTEAVAPYIPADDDFQ (not fully specified; printed as DTDLDTEAVApYIPADDDFQ) [DTDLDTEAVApYIPADDDFQ]	19	16.6	26.8
DTDLDLEAFAPYIPADDDFQ [DTDLDLEAFApYIPADDDFQ]	73.9	82.2	76.4
DTDLDLEAYAPYIPADDDFQ (not fully specified; printed as DTDLDLEAYApYIPADDDFQ) [DTDLDLEAYApYIPADDDFQ]	67.8	77.2	90.1
DTDLDFEALAPYIPADDDFQ [DTDLDFEALApYIPADDDFQ]	58.6	65.2	142
DTDLDLEMLKPYIPMDDDFQ (not fully specified; printed as DTDLDLEMLKpYIPMDDDFQ) [DTDLDLEMLKpYIPMDDDFQ]	57.7	68.7	74.5
DTDLDMEALAPYIPADDDFQ (not fully specified; printed as DTDLDMEALApYIPADDDFQ) [DTDLDMEALApYIPADDDFQ]	79.1	86.4	128
DTDLDVEATAPYIPADDDFQ (not fully specified; printed as DTDLDVEATApYIPADDDFQ) [DTDLDVEATApYIPADDDFQ]	13.6	20.4	24
DTDLDVEAVAPYIPADDDFQ (not fully specified; printed as DTDLDVEAVApYIPADDDFQ) [DTDLDVEAVApYIPADDDFQ]	16.6	22.8	49
DTDLDLEAEAPYIPADDDFQ [DTDLDLEAEApYIPADDDFQ]	13.2	9.97	16.9
DTDLDLEAQAPYIPADDDFQ [DTDLDLEAQApYIPADDDFQ]	19.1	23.4	39.4
DTDLDLEAIAPYIPADDDFQ [DTDLDLEAIApYIPADDDFQ]	89	88	104
DTDLDAEAIAPYIPADDDFQ [DTDLDAEAIApYIPADDDFQ]	24	31.3	25.7
DTDLDTEATAPYIPADDDFQ (not fully specified; printed as DTDLDTEATApYIPADDDFQ) [DTDLDTEATApYIPADDDFQ]	24.8	21.9	16.5
DTDLDAEATAPYIPADDDFQ [DTDLDAEATApYIPADDDFQ]	19.4	20.8	18.5
